The test concerns the target Spike RBD protein (SARS-CoV-2, UniProt P0DTC2). As to the kind of experiment: Luminex bead-based competitive binding assay.

B1: P5C3 human monoclonal antibody (antibody, V domains shown)
VH: QMQLVQSGPEVKKPGTSVKVSCKASGFTFTSSAVQWVRQARGQRLEWIGWIVVGSGNTDYAQQFQERVTITRDMSTSTAYMELSSLGSEDTAVYYCAAPNCSGGSCYDGFDLWGQGTMVTVSS
VL: EIVLTQSPGTLSLSPGERATLSCRGSQSVRSSYLGWYQQKPGQAPRLLIYGASSRATGIPDRFSGSGSGTDFTLTISRLEPEDFAVYYCQQYGSSPWTFGQGTKVEIK
Turning to B1, the binding result is “binds”.

B2: REGN10987 (antibody, V domains shown)
VH: QVQLVESGGGVVQPGRSLRLSCAASGFTFSNYAMYWVRQAPGKGLEWVAVISYDGSNKYYADSVKGRFTISRDNSKNTLYLQMNSLRTEDTAVYYCASGSDYGDYLLVYWGQGTLVTVSS
VL: QSALTQPASVSGSPGQSITISCTGTSSDVGGYNYVSWYQQHPGKAPKLMIYDVSKRPSGVSNRFSGSKSGNTASLTISGLQSEDEADYYCNSLTSISTWVFGGGTKLTVL
For the molecule B2, the binding result was “binds”.

B3: REGN10933 (antibody, V domains shown)
VH: QVQLVESGGGLVKPGGSLRLSCAASGFTFSDYYMSWIRQAPGKGLEWVSYITYSGSTIYYADSVKGRFTISRDNAKSSLYLQMNSLRAEDTAVYYCARDRGTTMVPFDYWGQGTLVTVSS
VL: DIQMTQSPSSLSASVGDRVTITCQASQDITNYLNWYQQKPGKAPKLLIYAASNLETGVPSRFSGSGSGTDFTFTISGLQPEDIATYYCQQYDNLPLTFGGGTKVEIK
With B3, the binding result was “binds”.
